Measured values: patent US20190204338A1 (PHYLOGICA, published 2019)
Where no end group is shown, it is not given here. His tag = polyhistidine tag from vector pDEST-HisMBP; MBP = not defined here

Tests used:
[1] = target: T1, MBP-MAP4K4-CNH (biotinylated, immobilised) (human, UniProt P0AEX9 27-392 = MBP; O95819 926-1213, limits assumed, biotinylated (site not given)); test: BLI (Octet-RED), titration, compared with MBP-RAP2A in the same system
T1 construct: 45 ug/ml on streptavidin biosensors; also called CNH domain of MAP4K4; biotinylated MAP4K4-CNH
Description: (§1) Data were acquired with the Data Acquisition software version 6.2 and all steps/dilutions were performed in baseline buffer (PBS pH 8.0) at a rotation rate of 1000 rpm.

[2] = target: T1, MBP-MAP4K4-CNH (biotinylated, …); test: BLI (Octet-RED), titration 100-1000 nM, global 1:1 fit, immobilised biotinylated MAP4K4-CNH
Description: as §1

[3] = target: T1, MBP-MAP4K4-CNH (biotinylated, …); test: BLI (Octet-RED), single concentration 1 uM, local 1:1 fit, immobilised biotinylated MAP4K4-CNH
Description: as §1

B1: MBP-25C3 (Phylomer 25C3 expressed as a His-MBP tagged fusion) (peptide)
chain: {His tag-MBP}-LGAAGPTHYDHLDCAR
modifications: reading uncertain; also: linker between MBP and peptide not given here
notes: Purified as monomeric protein; also called 25C3 fusion peptide; not shown: His tag of vector pDEST-HisMBP
fold lower binding affinity than RAP2A [1]: 5 fold | Kd [2]: 28 nM | koff [2]: 0.0001 s⁻¹ | Kd [3]: 23.5 nM | koff [3]: 4.4e-05 s⁻¹
